Experimental findings from patent US20170165338A1 are described below.

B1: … (peptide)
peptide: KLIFSVEAV
B2: … (peptide)
peptide: TLIDEQDIPLV
B3: … (peptide)
peptide: SLDPDTLPAV
B4: … (peptide)
peptide: TLFGYSVVL
B5: … (peptide)
peptide: QMFQYFITV
B6: … (peptide)
peptide: AIVDLIHDI
B7: … (peptide)
peptide: SLGKFTFDV
B8: … (peptide)
peptide: ALLGTKILL
B9: … (peptide)
peptide: YLLPLLPAL
B10: … (peptide)
peptide: QLAPVFQRV
B11: … (peptide)
peptide: KLDGNELDL
B12: … (peptide)
peptide: ALNPELVQA
B13: … (peptide)
peptide: VLNDILVRA
B14: … (peptide)
peptide: ALADFMLSL
B15: … (peptide)
peptide: GLLGSLFFL
B16: … (peptide)
peptide: SLFPDSLIV
B17: … (peptide)
peptide: TVFTDHMLTV
B18: … (peptide)
peptide: LLLGDSALYL
B19: … (peptide)
peptide: LLLPAVPVGA
B20: … (peptide)
peptide: AIVKEIVNI
B21: … (peptide)
peptide: NALDKVLSV
B22: … (peptide)
peptide: AQADHLPQL
B23: … (peptide)
peptide: TLLQRLTEV
B24: … (peptide)
peptide: ALISWQPPRA
B25: … (peptide)
peptide: FLAVGLVDV
B26: … (peptide)
peptide: SLDPSVTHL
B27: … (peptide)
peptide: LLVPTSGIYFV
B28: … (peptide)
peptide: SVVPDVRSV
B29: … (peptide)
peptide: ALFAPLVHL
B30: … (peptide)
peptide: QLIQTLHAV
B31: … (peptide)
peptide: FLHDEKEGIYI
B32: … (peptide)
peptide: VTPVTVSAV
B33: … (peptide)
peptide: FLLGVSKEV
B34: … (peptide)
peptide: KLYEADFVL
B35: … (peptide)
peptide: ALLGMIIVGV
B36: … (peptide)
peptide: FLQDLEQRL
B37: … (peptide)
peptide: VTFKEYVTV
B38: … (peptide)
peptide: ALCPRIHEV
B39: … (peptide)
peptide: FINDSIVYL
B40: … (peptide)
peptide: YTLREVDTV
B41: … (peptide)
peptide: FTIFRTISV
B42: … (peptide)
peptide: GQASYFYVA
B43: … (peptide)
peptide: YLLQSVNQLLL
B44: … (peptide)
peptide: SLADYEHFV
B45: … (peptide)
peptide: LLVSHLYLV
B46: … (peptide)
peptide: SQIPAQPSV
B47: … (peptide)
peptide: AVIKFLELL
B48: … (peptide)
peptide: AVGPVHNSV
B49: … (peptide)
peptide: VLLDIQEVFQI
B50: … (peptide)
peptide: RLFPDFFTRVAL
B51: … (peptide)
peptide: TIYKDFVYI
B52: … (peptide)
peptide: KLLDPQEFTL
B53: … (peptide)
peptide: FLERGLESA
B54: … (peptide)
peptide: YLVSEIFKA
B55: … (peptide)
peptide: GLLFSLRSV
B56: … (peptide)
peptide: ILLKNLVTI
B57: … (peptide)
peptide: VLDPALPALV
B58: … (peptide)
peptide: VLHSKFWVV
B59: … (peptide)
peptide: GVVDPVHGV
B60: … (peptide)
peptide: KVMATIEKV
B61: … (peptide)
peptide: QLWQFLVTL
B62: … (peptide)
peptide: FIFDEAEKL
B63: … (peptide)
peptide: KMPDVELFV
B64: … (peptide)
peptide: TQSPATLSV
B65: … (peptide)
peptide: TVVTRLDEI
B66: … (peptide)
peptide: FLTAINYLL
B67: … (peptide)
peptide: SVDSHFQEV
B68: … (peptide)
peptide: SLSNRLYYL
B69: … (peptide)
peptide: FIIQGLRSVGA

For this experiment, the target named is HLA-A*02 (human). As to the kind of experiment: UV-exchange b2m ELISA. (An ELISA detects its analyte on a solid surface through an enzyme-linked reagent.)
B1 registered a peptide exchange yield of 50 to 75%. The molecule B2 returned a peptide exchange yield of 50 to 75%.

Molecule B3 showed a peptide exchange yield of 20 to 49%. To B4 belongs 50 to 75%; to B5, > 75%. To B6 belongs 20 to 49%; to B7, > 75%; to B8, 50 to 75%. With B9 the figure was 50 to 75%. B10 had a peptide exchange yield of 20 to 49%.

In the case of B11, the peptide exchange yield was in the range of 50 to 75%. B12 returned a peptide exchange yield of 20 to 49%. With B13 the figure was 50 to 75%. With B14 the figure was 50 to 75%; with B15, > 75%; with B16, 20 to 49%. With B17 the figure was 20 to 49%. In turn, B18 had a peptide exchange yield of 50 to 75%. To B19 belongs 50 to 75%.

Consider B20, for which the peptide exchange yield was 20 to 49%. Molecule B21 registered a peptide exchange yield of 50 to 75%. To B22 belongs 20 to 49%; to B23, 50 to 75%; to B24, 50 to 75%. For the molecule B25, the peptide exchange yield lay in the range of 50 to 75%. With B26 the figure was 20 to 49%; with B27, 50 to 75%.

In the case of B28, the peptide exchange yield lay within 20 to 49%. To B29 belongs 50 to 75%; to B30, 50 to 75%; to B31, 50 to 75%. With B32 the figure was < 20%; with B33, 50 to 75%; with B34, 20 to 49%.

Consider B35, for which the peptide exchange yield was < 20%. With B36 the figure was 50 to 75%; with B37, 20 to 49%; with B38, > 75%.

B39 registered a peptide exchange yield of 50 to 75%. To B40 belongs 20 to 49%; to B41, 50 to 75%. With B42 the figure was 20 to 49%; with B43, 20 to 49%. On to B44, for which the peptide exchange yield is > 75%. With B45 the figure was 20 to 49%; with B46, 20 to 49%; with B47, 50 to 75%. Regarding B48, the peptide exchange yield was in the range of 20 to 49%. With B49 the figure was 50 to 75%; with B50, 20 to 49%. The molecule B51 came in with a peptide exchange yield of 20 to 49%. In turn, B52 yielded a peptide exchange yield of 50 to 75%. To B53 belongs 20 to 49%.

Regarding B54, the peptide exchange yield lay within 50 to 75%. To B55 belongs > 75%; to B56, 20 to 49%; to B57, 20 to 49%.

With B58, the peptide exchange yield fell in the range of 50 to 75%. With B59 the figure was 20 to 49%; with B60, 20 to 49%. With B61 the figure was 50 to 75%; with B62, < 20%; with B63, 50 to 75%. With B64, the peptide exchange yield is 20 to 49%. To B65 belongs 20 to 49%; to B66, 50 to 75%; to B67, 20 to 49%. To B68 belongs 50 to 75%; to B69, 50 to 75%.
